Test results as given in patent US11833164B2, “Methods of treating Fabry disease in patients having a mutation in the GLA gene” (Amicus Therapeutics, Inc., priority 2019, dated 2023).
Where a chain is given by its changes, count along the chain named. Numbers in names are those of the source.

B1: L344R (protein)
chain: MQLRNPELHLGCALALRFLALVSWDIPGARALDNGLARTPTMGWLHWERFMCNLDCQEEPDSCISEKLFMEMAELMVSEGWKDAGYEYLCIDDCWMAPQRDSEGRLQADPQRFPHGIRQLANYVHSKGLKLGIYADVGNKTCAGFPGSFGYYDIDAQTFADWGVDLLKFDGCYCDSLENLADGYKHMSLALNRTGRSIVYSCEWPLYMWPFQKPNYTEIRQYCNHWRNFADIDDSWKSIKSILDWTSFNQERIVDVAGPGGWNDPDMLVIGNFGLSWNQQVTQMALWAIMAAPLFMSNDLRHISPQAKALLQDKDVIAINQDPLGKQGYQLRQGDNFEVWERPRSGLAWAVAMINRQEIGGPRSYTIAVASLGKGVACNPACFITQLLPVKRKLGFYEWTSRLRSHINPTGTVLLQLENTMQMSLKDLL
B2: L344V (protein)
chain: B1 chain with R344V
B3: G346A (protein)
chain: B1 chain with R344L, G346A
B4: G346C (protein)
chain: B1 chain with R344L, G346C
B5: G346D (protein)
chain: B1 chain with R344L, G346D
B6: G346V (protein)
chain: B1 chain with R344L, G346V
B7: L347I (protein)
chain: B1 chain with R344L, L347I
B8: A348D (protein)
chain: B1 chain with R344L, A348D
B9: W349C (protein)
chain: B1 chain with R344L, W349C
B10: W349L (protein)
chain: B1 chain with R344L, W349L
B11: A350G (protein)
chain: B1 chain with R344L, A350G
B12: A350S (protein)
chain: B1 chain with R344L, A350S
B13: A350T (protein)
chain: B1 chain with R344L, A350T
B14: A350V (protein)
chain: B1 chain with R344L, A350V
B15: V351A (protein)
chain: B1 chain with R344L, V351A
B16: V351E (protein)
chain: B1 chain with R344L, V351E

Tested on: mutant form of α-Gal A expressed in HEK-293 cells
Test: HEK assay (GLP HEK / Migalastat Amenability Assay): α-Gal A activity in lysates of transiently transfected HEK-293 cells incubated with or without 10 μM migalastat
Type: cell-based, human
Settings: 10 μM migalastat versus baseline
Procedure, shortened: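 Activity reported as 4-MU released (nmol/mg/hr), mean±SEM, from lysates of transiently transfected HEK-293 cells expressing mutant α-Gal A, cultured with or without 10 μM migalastat.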

First: B1
Second: B2
The “Absolute increase (% WT)” value of the first is lower: 15.3 % WT for the first, 16.8 % WT for the second.

Compared with B3, B4 is lower in “Absolute increase (% WT)” value: 22.0 % WT for the first, 9.7 % WT for the second.

First: B5
Second: B6
The “Absolute increase (% WT)” value of the first is higher: 35.8 % WT for the first, 22.7 % WT for the second.

Compared with B7, B8 is lower in “Absolute increase (% WT)” value: 17.4 % WT for the first, 8.4 % WT for the second.

Compared with B9, B10 is lower in “Absolute increase (% WT)” value: 12.3 % WT for the first, 11.8 % WT for the second.

Compared with B11, B12 is higher in “Absolute increase (% WT)” value: 9.5 % WT for the first, 17.6 % WT for the second.

Compared with B13, B14 is higher in “Absolute increase (% WT)” value: 14.4 % WT for the first, 22.3 % WT for the second.

Going from B15 to B16, the “Absolute increase (% WT)” value falls from 14.2 % WT to 7.2 % WT.

Going from B1 to B2, the Relative increase falls from 2.3 to 1.4.

First: B3
Second: B4
The Relative increase of the first is higher: 1.4 for the first, 1.3 for the second.

Compared with B5, B6 is higher in Relative increase: 1.5 for the first, 1.8 for the second.

First: B7
Second: B8
The Relative increase of the first is higher: 1.3 for the first, 1.2 for the second.

B9 and B10 are the same in Relative increase: 1.3 for the first, 1.3 for the second.

First: B11
Second: B12
The Relative increase of the first is lower: 1.2 for the first, 1.3 for the second.

Compared with B13, B14 is higher in Relative increase: 1.3 for the first, 1.8 for the second.

Compared with B15, B16 is higher in Relative increase: 1.3 for the first, 1.7 for the second.

Same assay, conditions: absence of migalastat; percentage of baseline wild-type α-Gal A activity; mean ± SEM

Compared with B1, B2 is higher in “Baseline α-Gal A activity (% WT)” value: 10.9 ± 1.4 % WT for the first, 40.6 ± 3.2 % WT for the second.

Compared with B3, B4 is lower in “Baseline α-Gal A activity (% WT)” value: 58.3 ± 3.3 % WT for the first, 39.5 ± 1.9 % WT for the second.

Going from B5 to B6, the “Baseline α-Gal A activity (% WT)” value falls from 67.5 ± 6.4 % WT to 28.8 ± 2.4 % WT.

Compared with B7, B8 is lower in “Baseline α-Gal A activity (% WT)” value: 65 ± 3.8 % WT for the first, 41.6 ± 1.5 % WT for the second.

First: B9
Second: B10
The “Baseline α-Gal A activity (% WT)” value of the first is higher: 41.5 ± 2.6 % WT for the first, 35 ± 1.6 % WT for the second.

Going from B11 to B12, the “Baseline α-Gal A activity (% WT)” value rises from 41 ± 0.9 % WT to 62.9 ± 4.2 % WT.

Going from B13 to B14, the “Baseline α-Gal A activity (% WT)” value falls from 47.4 ± 3.7 % WT to 27.9 ± 0.9 % WT.

Compared with B15, B16 is lower in “Baseline α-Gal A activity (% WT)” value: 56.9 ± 4.7 % WT for the first, 10.5 ± 0.5 % WT for the second.

Same assay, conditions: lysates of HEK-293 cells transiently transfected with the mutant form, incubated 5 days in absence of migalastat; mean ± SEM

Compared with B1, B2 is higher in “Baseline α-Gal A activity” value: 4983 ± 848 nmol/mg/h for the first, 13586 ± 1026 nmol/mg/h for the second.

First: B3
Second: B4
The “Baseline α-Gal A activity” value of the first is higher: 23263 ± 1479 nmol/mg/h for the first, 18258 ± 1054 nmol/mg/h for the second.

Going from B5 to B6, the “Baseline α-Gal A activity” value falls from 31327 ± 3822 nmol/mg/h to 11683 ± 1406 nmol/mg/h.

Going from B7 to B8, the “Baseline α-Gal A activity” value falls from 26815 ± 2533 nmol/mg/h to 21682 ± 817 nmol/mg/h.

B9 and B10 are within error of each other in “Baseline α-Gal A activity” value: 17800 ± 1182 nmol/mg/h for the first, 18128 ± 742 nmol/mg/h for the second.

Going from B11 to B12, the “Baseline α-Gal A activity” value rises from 21459 ± 695 nmol/mg/h to 26493 ± 1291 nmol/mg/h.

Going from B13 to B14, the “Baseline α-Gal A activity” value falls from 20227 ± 1499 nmol/mg/h to 12786 ± 654 nmol/mg/h.

Going from B15 to B16, the “Baseline α-Gal A activity” value falls from 24009 ± 1662 nmol/mg/h to 4760 ± 281 nmol/mg/h.

Same assay, conditions: lysates of HEK-293 cells transiently transfected with the mutant form, incubated 5 days with 10 μM migalastat; mean ± SEM

First: B1
Second: B2
The “10 μM migalastat α-Gal A activity” value of the first is lower: 11592 ± 1593 nmol/mg/h for the first, 19262 ± 903 nmol/mg/h for the second.

First: B3
Second: B4
The “10 μM migalastat α-Gal A activity” value of the first is higher: 31948 ± 1306 nmol/mg/h for the first, 22856 ± 1772 nmol/mg/h for the second.

First: B5
Second: B6
The “10 μM migalastat α-Gal A activity” value of the first is higher: 46560 ± 3904 nmol/mg/h for the first, 20902 ± 2356 nmol/mg/h for the second.

First: B7
Second: B8
The “10 μM migalastat α-Gal A activity” value of the first is higher: 33517 ± 2802 nmol/mg/h for the first, 26025 ± 1129 nmol/mg/h for the second.

B9 and B10 are within error of each other in “10 μM migalastat α-Gal A activity” value: 23210 ± 1299 nmol/mg/h for the first, 24184 ± 1517 nmol/mg/h for the second.

Going from B11 to B12, the “10 μM migalastat α-Gal A activity” value rises from 26360 ± 1002 nmol/mg/h to 34474 ± 1484 nmol/mg/h.

First: B13
Second: B14
The “10 μM migalastat α-Gal A activity” value of the first is higher: 26484 ± 1189 nmol/mg/h for the first, 22855 ± 1012 nmol/mg/h for the second.

Going from B15 to B16, the “10 μM migalastat α-Gal A activity” value falls from 30218 ± 1531 nmol/mg/h to 7910 ± 348 nmol/mg/h.

Same assay, conditions: with 10 μM migalastat, 5 days; percentage of baseline wild-type α-Gal A activity; mean ± SEM

Going from B1 to B2, the “10 μM migalastat α-Gal A activity (% WT)” value rises from 26.2 ± 2.6 % WT to 57.5 ± 2.5 % WT.

Compared with B3, B4 is lower in “10 μM migalastat α-Gal A activity (% WT)” value: 80.4 ± 2.8 % WT for the first, 49.2 ± 2.9 % WT for the second.

First: B5
Second: B6
The “10 μM migalastat α-Gal A activity (% WT)” value of the first is higher: 103.3 ± 6 % WT for the first, 51.4 ± 3.9 % WT for the second.

First: B7
Second: B8
The “10 μM migalastat α-Gal A activity (% WT)” value of the first is higher: 82.4 ± 5 % WT for the first, 50 ± 2.2 % WT for the second.

Going from B9 to B10, the “10 μM migalastat α-Gal A activity (% WT)” value falls from 53.7 ± 2.5 % WT to 46.8 ± 3.2 % WT.

First: B11
Second: B12
The “10 μM migalastat α-Gal A activity (% WT)” value of the first is lower: 50.5 ± 1.7 % WT for the first, 80.5 ± 3.6 % WT for the second.

Going from B13 to B14, the “10 μM migalastat α-Gal A activity (% WT)” value falls from 61.7 ± 2.7 % WT to 50.2 ± 1.6 % WT.

First: B15
Second: B16
The “10 μM migalastat α-Gal A activity (% WT)” value of the first is higher: 71.1 ± 4.1 % WT for the first, 17.7 ± 1 % WT for the second.
